B1: Ab384 (antibody, V domains shown)
VH: EVQLVQSGAEVKKPGSSVKLSCKASGYTFTSYWMHWVRQAPGQGLEWIGYIKPSSGYTKYNQKFKDKATLTADKSTSTAYMELSSLRSEDTAVYYCARDYYGSSSWFAYWGQGTLVTVSS
VL: EIVMTQSPAFMSVTVGEKVTITCKASQNVGTNVAWYQQKPDQSPKALIYSASYRYSGVPSRFSGSGSGTDFTLTISSLEAEDAATYYCQQYNSYPYMYTFGQGTKLEIK
notes: humanized
B2: Ab367 (antibody, V domains shown)
VH: QVQLVQSGAEVAKPGASVKLSCKASGYTFTSYWMHWVKQAPGQGLEWIGYIKPSSGYTKYNQKFKDKATLTADKSTSTAYMELRSLRSDDTAVYYCARDYYGSSSWFAYWGQGTLVTVSS
VL: DIVMTQSQAFMSVTVGEKVTITCKASQNVGTNVAWYQQKPDQAPKALIYSASYRYSGVPSRFSGSGSGTDFTLTISSLEAEDAATYYCQQYNSYPYMYTFGQGTKLEIK
notes: humanized
B3: Ab353 (antibody, V domains shown)
VH: EVQLVQSGAEVKKPGTSVKLSCKASGYTFTSSAMQWVKQAPGQGLEWIGYIKPSSGYTKYNQKFKDKATLTADKSTSTAYMELSSLRSEDTAVYYCARDYYGSSSWFAYWGQGTLVTVSS
VL: EIVMTQSPAFLSVTPGEKVTITCKASQNVGTNVAWYQQKPDQAPKALIYSASYRYSGVPSRFSGSGSGTDFTLTISSLEAEDAATYYCQQYNSYPYMYTFGQGTKLEIK
notes: humanized
B4: Ab365 (antibody, V domains shown)
VH: EVQLVQSGAEVKKPGTSVKLSCKASGYTFTSSAMQWVKQAPGQGLEWIGYIKPSSGYTKYNQKFKDKATLTADKSTSTAYMELSSLRSEDTAVYYCARDYYGSSSWFAYWGQGTLVTVSS
VL: DIVMTQSQAFMSVTVGEKVTITCKASQNVGTNVAWYQQKPDQAPKALIYSASYRYSGVPSRFSGSGSGTDFTLTISSLEAEDAATYYCQQYNSYPYMYTFGQGTKLEIK
notes: humanized
B5: Ab366 (antibody, V domains shown)
VH: EVQLVQSGAEVKKPGTSVKLSCKASGYTFTSYWMHWVRQARGQRLEWIGYIKPSSGYTKYAQKFQERVTLTADKSTSTAYMELSSLRSEDTAVYYCARDYYGSSSWFAYWGQGTLVTVSS
VL: DIVMTQSQAFMSVTVGEKVTITCKASQNVGTNVAWYQQKPDQAPKALIYSASYRYSGVPSRFSGSGSGTDFTLTISSLEAEDAATYYCQQYNSYPYMYTFGQGTKLEIK
notes: humanized
B6: Ab363 (antibody, V domains shown)
VH: QVQLVQSGAEVAKPGTSVKLSCKASGYTFTSYWMHWVKQAPGQGLEWIGYIKPSSGYTKYNQKFKDKVTLTADKSTSTAYMELSSLRSEDTAVYYCARDYYGSSSWFAYWGQGTLVTVSS
VL: DIVMTQSQAFMSVTVGEKVTITCKASQNVGTNVAWYQQKPDQAPKALIYSASYRYSGVPSRFSGSGSGTDFTLTISSLEAEDAATYYCQQYNSYPYMYTFGQGTKLEIK
notes: humanized
B7: Ab351 (antibody, V domains shown)
VH: QVQLVQSGAEVAKPGTSVKLSCKASGYTFTSYWMHWVKQAPGQGLEWIGYIKPSSGYTKYNQKFKDKVTLTADKSTSTAYMELSSLRSEDTAVYYCARDYYGSSSWFAYWGQGTLVTVSS
VL: EIVMTQSPAFLSVTPGEKVTITCKASQNVGTNVAWYQQKPDQAPKALIYSASYRYSGVPSRFSGSGSGTDFTLTISSLEAEDAATYYCQQYNSYPYMYTFGQGTKLEIK
notes: humanized
B8: Ab356 (antibody, V domains shown)
VH: EVQLVQSGAEVKKPGASVKLSCKASGYTFTSYWMHWVRQAPGQGLEWIGYIKPSSGYTKYNQKFKDKATLTADKSTSTAYMELRSLRSDDTAVYYCARDYYGSSSWFAYWGQGTLVTVSS
VL: EIVMTQSPAFLSVTPGEKVTITCKASQNVGTNVAWYQQKPDQAPKALIYSASYRYSGVPSRFSGSGSGTDFTLTISSLEAEDAATYYCQQYNSYPYMYTFGQGTKLEIK
notes: humanized
B9: Ab360 (antibody, V domains shown)
VH: EVQLVQSGAEVKKPGSSVKLSCKASGYTFTSYWMHWVRQAPGQGLEWIGYIKPSSGYTKYNQKFKDKATLTADKSTSTAYMELSSLRSEDTAVYYCARDYYGSSSWFAYWGQGTLVTVSS
VL: EIVMTQSPAFLSVTPGEKVTITCKASQNVGTNVAWYQQKPDQAPKALIYSASYRYSGVPSRFSGSGSGTDFTLTISSLEAEDAATYYCQQYNSYPYMYTFGQGTKLEIK
notes: humanized
B10: Ab371 (antibody, V domains shown)
VH: QVQLVQSGAEVAKPGSSVKLSCKASGYTFTSYWMHWVKQAPGQGLEWIGYIKPSSGYTKYNQKFKDKATLTADKSTSTAYMELSSLRSEDTAVYYCARDYYGSSSWFAYWGQGTLVTVSS
VL: DIVMTQSQAFMSVTVGEKVTITCKASQNVGTNVAWYQQKPDQAPKALIYSASYRYSGVPSRFSGSGSGTDFTLTISSLEAEDAATYYCQQYNSYPYMYTFGQGTKLEIK
notes: humanized
B11: Ab372 (antibody, V domains shown)
VH: EVQLVQSGAEVKKPGSSVKLSCKASGYTFTSYWMHWVRQAPGQGLEWIGYIKPSSGYTKYNQKFKDKATLTADKSTSTAYMELSSLRSEDTAVYYCARDYYGSSSWFAYWGQGTLVTVSS
VL: DIVMTQSQAFMSVTVGEKVTITCKASQNVGTNVAWYQQKPDQAPKALIYSASYRYSGVPSRFSGSGSGTDFTLTISSLEAEDAATYYCQQYNSYPYMYTFGQGTKLEIK
notes: humanized
B12: Ab364 (antibody, V domains shown)
VH: EVQLVQSGPEVKKPGTSVKLSCKASGYTFTSYWMHWVRQARGQRLEWIGYIKPSSGYTKYNQKFKDRATLTADKSTSTAYMELSSLRSEDTAVYYCARDYYGSSSWFAYWGQGTLVTVSS
VL: DIVMTQSQAFMSVTVGEKVTITCKASQNVGTNVAWYQQKPDQAPKALIYSASYRYSGVPSRFSGSGSGTDFTLTISSLEAEDAATYYCQQYNSYPYMYTFGQGTKLEIK
notes: humanized
B13: Ab359 (antibody, V domains shown)
VH: QVQLVQSGAEVAKPGSSVKLSCKASGYTFTSYWMHWVKQAPGQGLEWIGYIKPSSGYTKYNQKFKDKATLTADKSTSTAYMELSSLRSEDTAVYYCARDYYGSSSWFAYWGQGTLVTVSS
VL: EIVMTQSPAFLSVTPGEKVTITCKASQNVGTNVAWYQQKPDQAPKALIYSASYRYSGVPSRFSGSGSGTDFTLTISSLEAEDAATYYCQQYNSYPYMYTFGQGTKLEIK
notes: humanized
B14: Ab369 (antibody, V domains shown)
VH: EVQLVQSGAEVAKPGASVKLSCKASGYTFTSYWMHWVRQAPGQGLEWIGYIKPSSGYTKYNQKFKDKATLTADKSTSTAYMELRSLRSDDTAVYYCARDYYGSSSWFAYWGQGTLVTVSS
VL: DIVMTQSQAFMSVTVGEKVTITCKASQNVGTNVAWYQQKPDQAPKALIYSASYRYSGVPSRFSGSGSGTDFTLTISSLEAEDAATYYCQQYNSYPYMYTFGQGTKLEIK
notes: humanized
B15: Ab358 (antibody, V domains shown)
VH: EVQLVQSGAEVKKPGASVKLSCKASGYTFTSYWMHWVRQAPGQGLEWIGYIKPSSGYTKYAQKLQGRVTLTADKSTSTAYMELRSLRSDDTAVYYCARDYYGSSSWFAYWGQGTLVTVSS
VL: EIVMTQSPAFLSVTPGEKVTITCKASQNVGTNVAWYQQKPDQAPKALIYSASYRYSGVPSRFSGSGSGTDFTLTISSLEAEDAATYYCQQYNSYPYMYTFGQGTKLEIK
notes: humanized
B16: Ab354 (antibody, V domains shown)
VH: EVQLVQSGAEVKKPGTSVKLSCKASGYTFTSYWMHWVRQARGQRLEWIGYIKPSSGYTKYAQKFQERVTLTADKSTSTAYMELSSLRSEDTAVYYCARDYYGSSSWFAYWGQGTLVTVSS
VL: EIVMTQSPAFLSVTPGEKVTITCKASQNVGTNVAWYQQKPDQAPKALIYSASYRYSGVPSRFSGSGSGTDFTLTISSLEAEDAATYYCQQYNSYPYMYTFGQGTKLEIK
notes: humanized
B17: Ab362 (antibody, V domains shown)
VH: EVQLVQSGAEVKKPGSSVKLSCKASGYTFSSYWMHWVKQAPGQGLEWIGYIKPSSGYTKYAQKFQGRVTLTADKSTSTAYMELSSLRSEDTAVYYCARDYYGSSSWFAYWGQGTLVTVSS
VL: EIVMTQSPAFLSVTPGEKVTITCKASQNVGTNVAWYQQKPDQAPKALIYSASYRYSGVPSRFSGSGSGTDFTLTISSLEAEDAATYYCQQYNSYPYMYTFGQGTKLEIK
notes: humanized
B18: Ab361 (antibody, V domains shown)
VH: EVQLVQSGAEVKKPGSSVKVSCKASGYTFSSYWMHWVRQAPGQGLEWIGYIKPSSGYTKYNQKFKDKATLTADKSTSTAYMELSSLRSEDTAVYYCARDYYGSSSWFAYWGQGTLVTVSS
VL: EIVMTQSPAFLSVTPGEKVTITCKASQNVGTNVAWYQQKPDQAPKALIYSASYRYSGVPSRFSGSGSGTDFTLTISSLEAEDAATYYCQQYNSYPYMYTFGQGTKLEIK
notes: humanized
B19: Ab370 (antibody, V domains shown)
VH: EVQLVQSGAEVKKPGASVKLSCKASGYTFTSYWMHWVRQAPGQGLEWIGYIKPSSGYTKYAQKLQGRVTLTADKSTSTAYMELRSLRSDDTAVYYCARDYYGSSSWFAYWGQGTLVTVSS
VL: DIVMTQSQAFMSVTVGEKVTITCKASQNVGTNVAWYQQKPDQAPKALIYSASYRYSGVPSRFSGSGSGTDFTLTISSLEAEDAATYYCQQYNSYPYMYTFGQGTKLEIK
notes: humanized
B20: Ab368 (antibody, V domains shown)
VH: EVQLVQSGAEVKKPGASVKLSCKASGYTFTSYWMHWVRQAPGQGLEWIGYIKPSSGYTKYNQKFKDKATLTADKSTSTAYMELRSLRSDDTAVYYCARDYYGSSSWFAYWGQGTLVTVSS
VL: DIVMTQSQAFMSVTVGEKVTITCKASQNVGTNVAWYQQKPDQAPKALIYSASYRYSGVPSRFSGSGSGTDFTLTISSLEAEDAATYYCQQYNSYPYMYTFGQGTKLEIK
notes: humanized
B21: Ab357 (antibody, V domains shown)
VH: EVQLVQSGAEVAKPGASVKLSCKASGYTFTSYWMHWVRQAPGQGLEWIGYIKPSSGYTKYNQKFKDKATLTADKSTSTAYMELRSLRSDDTAVYYCARDYYGSSSWFAYWGQGTLVTVSS
VL: EIVMTQSPAFLSVTPGEKVTITCKASQNVGTNVAWYQQKPDQAPKALIYSASYRYSGVPSRFSGSGSGTDFTLTISSLEAEDAATYYCQQYNSYPYMYTFGQGTKLEIK
notes: humanized

T1 sequence (Q9UM73 19-1038 limits assumed): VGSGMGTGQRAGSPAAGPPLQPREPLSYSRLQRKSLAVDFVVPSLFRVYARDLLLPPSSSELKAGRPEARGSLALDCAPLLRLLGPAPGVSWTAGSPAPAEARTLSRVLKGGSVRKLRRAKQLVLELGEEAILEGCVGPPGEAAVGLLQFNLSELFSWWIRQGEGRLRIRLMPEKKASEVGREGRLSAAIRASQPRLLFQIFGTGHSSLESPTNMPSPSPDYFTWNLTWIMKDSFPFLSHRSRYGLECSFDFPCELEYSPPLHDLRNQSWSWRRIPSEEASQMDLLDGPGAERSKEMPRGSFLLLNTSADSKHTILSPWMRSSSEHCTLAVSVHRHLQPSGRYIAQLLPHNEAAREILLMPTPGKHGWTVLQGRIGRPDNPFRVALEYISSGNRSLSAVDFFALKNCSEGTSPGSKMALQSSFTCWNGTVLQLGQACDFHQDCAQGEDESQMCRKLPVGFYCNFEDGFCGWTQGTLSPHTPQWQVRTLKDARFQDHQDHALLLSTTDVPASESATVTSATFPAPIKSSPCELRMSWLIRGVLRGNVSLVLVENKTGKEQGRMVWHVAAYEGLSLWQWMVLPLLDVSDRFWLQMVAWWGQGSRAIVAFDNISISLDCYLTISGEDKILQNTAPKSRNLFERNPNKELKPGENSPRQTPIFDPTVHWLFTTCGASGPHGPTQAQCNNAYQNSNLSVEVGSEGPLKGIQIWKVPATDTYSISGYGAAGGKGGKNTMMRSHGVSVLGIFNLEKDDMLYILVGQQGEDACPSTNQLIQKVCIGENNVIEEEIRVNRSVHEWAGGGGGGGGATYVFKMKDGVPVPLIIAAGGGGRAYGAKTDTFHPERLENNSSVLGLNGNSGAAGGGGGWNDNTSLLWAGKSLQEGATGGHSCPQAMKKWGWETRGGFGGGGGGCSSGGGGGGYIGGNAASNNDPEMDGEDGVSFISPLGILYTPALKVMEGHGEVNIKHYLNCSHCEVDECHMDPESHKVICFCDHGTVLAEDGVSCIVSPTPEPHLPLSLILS

This experiment has as its target T1, purified ALK protein (BLitz, Table 20) (Homo sapiens (Human), UniProt Q9UM73 19-1038, limits assumed).
T1 construct: also called purified ALK proteins
Nature of the experiment: BLI (BLitz), mAb on Protein A tip, purified ALK in solution. As for the experimental part:
Kinetic measurements of the monovalent affinity of the 96 humanized ALK antibody variants (Ab351-Ab446) were collected. Affinity ranking was performed using a BLitz® System (ForteBio, Menlo Park, Calif.). Humanized anti-ALK antibodies were immobilized at 0.5 mg/mL using Protein A tips. Once baseline stability was ensured, purified ALK proteins at 70 μg/mL were added. The resulting kinetic data were fit to a single binding site equation, from which the quoted monovalent KD values were derived.
Molecule B1 gave a Kd of 201 nM.

The molecule B2 yielded a dissociation constant (Kd) of 114 nM. The result for B3 reads 384 nM. The result for B4 reads 1490 nM; that for B5, 219 nM. B6 came in with a Kd of 119 nM. The result for B7 reads 120 nM; that for B8, 128 nM; that for B9, 137 nM. Molecule B10 registered a Kd of 130 nM.

In turn, B11 gave a Kd of 188 nM. As to B12, binding was characterised by a dissociation constant (Kd) of 128 nM. The result for B13 reads 100 nM; that for B14, 210 nM; that for B15, 118 nM. The result for B16 reads 133 nM; that for B17, 149 nM; that for B18, 153 nM. The result for B19 reads 2530 nM; that for B20, 198 nM.

With B21, the Kd worked out at 147 nM.

Values taken from patent publication US20200157236A1 (CELLDEX THERAPEUTICS, published 2020).
